In patent publication US20030207330A1 (DYAX, published 2003):
fluorescein = fluorescein label, attached with NHS-fluorescein

Molecular target: T1, fibrinogen (species not stated); biotinylated fibrinogen on streptavidin plates in the phage ELISA, free … (Homo sapiens (Human), UniProt P02671 20-644); P02675 31-491; P02679 27-437, Biotinylated at unstated positions in the phage ELISA and unlabelled in the anisotropy assay. The native molecule is a disulfide-linked dimer of the three chains, (A-alpha B-beta gamma)2, and is …)
T1 construct: also called Fgn; fibrinogen target
T1 sequence (alpha): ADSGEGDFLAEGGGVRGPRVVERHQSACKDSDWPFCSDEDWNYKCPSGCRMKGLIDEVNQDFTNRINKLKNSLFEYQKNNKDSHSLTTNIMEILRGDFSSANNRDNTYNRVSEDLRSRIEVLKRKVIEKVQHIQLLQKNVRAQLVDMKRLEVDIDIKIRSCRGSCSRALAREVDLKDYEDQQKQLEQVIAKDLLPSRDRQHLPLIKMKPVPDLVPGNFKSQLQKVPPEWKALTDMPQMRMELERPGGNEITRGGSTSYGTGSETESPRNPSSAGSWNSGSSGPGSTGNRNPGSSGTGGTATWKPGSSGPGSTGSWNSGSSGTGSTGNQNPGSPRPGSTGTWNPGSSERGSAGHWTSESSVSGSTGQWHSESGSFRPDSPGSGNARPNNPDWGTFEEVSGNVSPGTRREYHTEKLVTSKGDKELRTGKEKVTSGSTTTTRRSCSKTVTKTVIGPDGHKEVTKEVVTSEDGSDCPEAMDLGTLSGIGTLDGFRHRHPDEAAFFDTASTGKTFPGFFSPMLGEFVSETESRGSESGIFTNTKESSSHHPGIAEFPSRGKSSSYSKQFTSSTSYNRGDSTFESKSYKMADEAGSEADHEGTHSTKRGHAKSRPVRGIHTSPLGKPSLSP
T1 sequence (beta): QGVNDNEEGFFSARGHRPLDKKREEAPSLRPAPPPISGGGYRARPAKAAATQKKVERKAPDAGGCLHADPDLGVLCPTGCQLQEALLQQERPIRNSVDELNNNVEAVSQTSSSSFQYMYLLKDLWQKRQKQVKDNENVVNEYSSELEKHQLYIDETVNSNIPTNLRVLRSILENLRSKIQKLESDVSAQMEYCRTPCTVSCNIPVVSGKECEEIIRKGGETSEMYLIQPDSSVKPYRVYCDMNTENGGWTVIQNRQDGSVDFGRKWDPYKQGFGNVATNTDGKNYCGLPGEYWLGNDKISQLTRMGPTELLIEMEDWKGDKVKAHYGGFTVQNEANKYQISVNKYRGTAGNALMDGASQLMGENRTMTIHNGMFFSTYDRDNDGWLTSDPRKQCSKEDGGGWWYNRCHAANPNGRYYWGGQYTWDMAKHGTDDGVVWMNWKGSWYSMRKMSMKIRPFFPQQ
T1 sequence (gamma): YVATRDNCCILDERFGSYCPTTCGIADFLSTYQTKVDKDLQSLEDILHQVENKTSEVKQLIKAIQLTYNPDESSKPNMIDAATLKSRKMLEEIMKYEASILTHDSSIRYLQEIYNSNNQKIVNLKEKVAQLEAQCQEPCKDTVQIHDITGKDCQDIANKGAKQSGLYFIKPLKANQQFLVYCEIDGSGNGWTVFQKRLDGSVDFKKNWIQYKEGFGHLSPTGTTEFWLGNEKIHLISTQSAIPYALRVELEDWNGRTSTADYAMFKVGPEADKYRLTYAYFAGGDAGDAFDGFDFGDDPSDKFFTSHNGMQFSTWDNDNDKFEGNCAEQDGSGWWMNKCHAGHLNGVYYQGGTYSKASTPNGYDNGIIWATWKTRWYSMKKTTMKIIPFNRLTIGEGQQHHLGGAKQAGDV
Assay: fluorescence anisotropy, 20 nM fluorescein-labeled peptide, fibrinogen varied, 30° C., 1:1 fit
Method: An apparent dissociation constant was determined for a selected polypeptide. For this determination, the polypeptide was labeled on the C-terminal end with NHS-fluorescein. Fluorescence anisotropy measurements were performed in 384-well microplates in a volume of 10 μl in binding buffer using a Tecan Polarion fluorescence polarization plate reader. The concentration of fluorescein labeled peptide was held constant (20 nM), and the concentration of fibrinogen was varied. The polypeptide was tested in the same binding buffer as used in the selection. The binding mixture was equilibrated for 10 minutes in the microplate at 30° C. prior to performing the measurement. The observed change in anisotropy was fit to the equation below via nonlinear regression to obtain the apparent KD. This equation assumes that the polypeptide and fibrinogen form a reversible complex with 1:1 stoichiometry.

B1: fluorescein-labeled synthetic polypeptide based on the TN10/IX polypeptide of SEQ ID NO: 43 (peptide)
peptide: Ac-LYLCNSYPMHPYCNPSGGGK(fluorescein)-NH2
modifications: cysteine pairing not given here; also: retained phage-derived N- and C-terminal dipeptides, which ones not given here
notes: Commercial FMOC solid phase synthesis; also called selected polypeptide; not shown: retained phage-derived N-terminal dipeptide (Gly-Ser-, Ala-Gly- or Gly-Asp-); retained phage-derived C-terminal dipeptide (-Ala-Pro, -Gly-Thr or -Asp-Pro)
- Kd: 2 µM
